This data set deals with the molecule itself. The data set can be described thus: negative-stain electron microscopy of polymerised samples; polymerised 16 h at 298 K at 20 uM in F buffer without jasplakinolide, diluted to 1 uM, stained with 2% uranyl acetate.

B1: Plasmodium falciparum actin I, wild type (natural protein)
chain: not shown
notes: Plasmodium falciparum actin I; His74 is not methylated in the recombinant protein; In the pyrene assay about 10% of the actin carried N-(1-pyrene)iodoacetamide; also called PfActI; P. falciparum actin I; source: insect cells, purified (Ni-NTA, TEV cleavage, second Ni-NTA, Superdex 200 gel filtration)
B1: the binding result is listed as “binds”.

These data come from publication PMC6599135, “Atomic view into Plasmodium actin polymerization, ATP hydrolysis, and fragmentation” (PLoS Biology, 2019).
